In patent CN115677859A (HEFEI HANKEMAB BIOTECHNOLOGY CO LTD; ANHUI ANKE …, dated 2023):

B1: 抗人PD-L1/4-1BB双特异性抗体 结构B (anti-4-1BB scFv-(G4S)2-IgG4 Fc-(G4S)3-anti-PD-L1 Fab) (bispecific antibody)
heavy: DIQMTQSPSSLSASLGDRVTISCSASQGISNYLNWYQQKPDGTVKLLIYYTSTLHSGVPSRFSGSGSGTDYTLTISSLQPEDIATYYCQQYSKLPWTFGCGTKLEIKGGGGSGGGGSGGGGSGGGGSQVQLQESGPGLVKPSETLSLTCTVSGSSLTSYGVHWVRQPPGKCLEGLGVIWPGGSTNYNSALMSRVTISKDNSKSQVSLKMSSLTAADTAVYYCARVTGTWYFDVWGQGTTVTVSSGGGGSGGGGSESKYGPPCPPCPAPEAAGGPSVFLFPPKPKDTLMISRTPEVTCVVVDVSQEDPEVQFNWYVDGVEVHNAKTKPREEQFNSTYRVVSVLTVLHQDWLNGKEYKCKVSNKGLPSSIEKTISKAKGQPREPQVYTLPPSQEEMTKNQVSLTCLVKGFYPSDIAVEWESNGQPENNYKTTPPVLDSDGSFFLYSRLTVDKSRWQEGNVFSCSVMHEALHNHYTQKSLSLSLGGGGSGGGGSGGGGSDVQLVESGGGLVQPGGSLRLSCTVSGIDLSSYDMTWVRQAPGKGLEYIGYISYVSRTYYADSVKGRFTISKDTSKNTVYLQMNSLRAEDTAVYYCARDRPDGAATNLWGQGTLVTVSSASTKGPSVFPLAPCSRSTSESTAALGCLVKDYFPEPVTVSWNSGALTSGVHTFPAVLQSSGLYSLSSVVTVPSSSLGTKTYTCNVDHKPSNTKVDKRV
light: DIQMTQSPSTLSASVGDRVTITCQSSQNVYSNNRLSWYQQKPGKAPKLLIYWTSFLASGVPSRFSGSGSGTEFTLTISSLQPDDFATYYCAGGYSGNLYTFGQGTKLEIKRTVAAPSVFIFPPSDEQLKSGTASVVCLLNNFYPREAKVQWKVDNALQSGNSQESVTEQDSKDSTYSLSSTLTLSKADYEKHKVYACEVTHQGLSSPVTKSFNRGEC
notes: Two heavy and two light chains; human IgG4 Fc; also called B结构
B2: 抗人PD-L1/4-1BB双特异性抗体 D6 (结构D, D2的突变体, linker (G4S)3) (bispecific antibody, human IgG4 S228P, kappa, F234A L235A)
heavy: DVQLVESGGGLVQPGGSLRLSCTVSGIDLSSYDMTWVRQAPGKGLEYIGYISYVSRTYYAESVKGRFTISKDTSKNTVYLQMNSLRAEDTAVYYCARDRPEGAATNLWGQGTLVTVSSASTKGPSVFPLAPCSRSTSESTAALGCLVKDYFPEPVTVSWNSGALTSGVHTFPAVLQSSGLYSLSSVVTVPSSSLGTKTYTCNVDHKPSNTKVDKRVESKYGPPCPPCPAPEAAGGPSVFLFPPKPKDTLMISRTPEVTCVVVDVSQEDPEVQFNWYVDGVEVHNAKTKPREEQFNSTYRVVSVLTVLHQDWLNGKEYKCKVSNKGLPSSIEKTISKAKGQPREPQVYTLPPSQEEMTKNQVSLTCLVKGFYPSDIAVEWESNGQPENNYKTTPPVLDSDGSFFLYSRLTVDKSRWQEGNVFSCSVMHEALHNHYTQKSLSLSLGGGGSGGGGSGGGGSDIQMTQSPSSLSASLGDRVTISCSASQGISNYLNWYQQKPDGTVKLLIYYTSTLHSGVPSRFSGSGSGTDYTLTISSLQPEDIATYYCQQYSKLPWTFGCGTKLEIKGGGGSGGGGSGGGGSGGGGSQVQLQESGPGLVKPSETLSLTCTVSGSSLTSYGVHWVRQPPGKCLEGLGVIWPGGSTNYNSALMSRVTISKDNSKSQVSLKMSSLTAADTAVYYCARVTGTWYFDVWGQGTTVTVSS
light: B1 light
notes: Anti-PD-L1 IgG4 with an anti-4-1BB scFv at the C-terminus of each heavy chain
B3: 抗人PD-L1/4-1BB双特异性抗体 D3 (结构D, D1的突变体, linker A(EAAAK)4ALE) (bispecific antibody, human IgG4 S228P, kappa, F234A L235A)
heavy: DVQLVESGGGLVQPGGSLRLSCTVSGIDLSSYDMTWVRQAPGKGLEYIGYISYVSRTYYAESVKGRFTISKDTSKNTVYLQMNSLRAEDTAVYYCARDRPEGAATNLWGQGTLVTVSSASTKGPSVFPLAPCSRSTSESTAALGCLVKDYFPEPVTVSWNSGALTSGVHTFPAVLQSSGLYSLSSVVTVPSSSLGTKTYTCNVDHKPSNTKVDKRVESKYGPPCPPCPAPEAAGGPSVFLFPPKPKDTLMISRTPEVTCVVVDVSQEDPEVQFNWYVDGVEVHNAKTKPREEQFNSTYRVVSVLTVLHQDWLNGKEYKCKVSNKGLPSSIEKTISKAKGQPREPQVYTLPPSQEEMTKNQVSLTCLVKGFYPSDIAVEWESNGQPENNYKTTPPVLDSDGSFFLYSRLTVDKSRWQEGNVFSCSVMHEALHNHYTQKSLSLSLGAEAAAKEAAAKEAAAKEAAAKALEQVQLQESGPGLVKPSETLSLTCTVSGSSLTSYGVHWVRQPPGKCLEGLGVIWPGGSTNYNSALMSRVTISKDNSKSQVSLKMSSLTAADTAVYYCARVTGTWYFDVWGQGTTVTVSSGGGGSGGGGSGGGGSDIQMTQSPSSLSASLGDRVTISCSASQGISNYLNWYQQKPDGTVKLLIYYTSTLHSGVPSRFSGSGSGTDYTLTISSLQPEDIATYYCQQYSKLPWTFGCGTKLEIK
light: B1 light
notes: as for B2

Tests used:
[1] = target: T1, 人4-1BB全长, 表达于细胞 (CHO-K1/h4-1BB; HEK-293/NFκB-Luci/4-1BB) (human, UniProt Q07011 24-255); assay: flow cytometry on CHO-K1/h4-1BB cells
T1 construct: also called 细胞表面人4-1BB抗原
T1 sequence (Q07011 24-255 limits assumed): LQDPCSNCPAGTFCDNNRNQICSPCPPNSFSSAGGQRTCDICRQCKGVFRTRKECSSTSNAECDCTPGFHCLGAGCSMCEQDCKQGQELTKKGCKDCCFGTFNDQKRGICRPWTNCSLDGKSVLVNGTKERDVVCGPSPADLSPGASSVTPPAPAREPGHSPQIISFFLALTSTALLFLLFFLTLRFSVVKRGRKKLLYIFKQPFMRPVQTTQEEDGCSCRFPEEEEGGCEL

[2] = target: T2, 人4-1BB胞外段, 带鼠Fc标签 (human 4-1BB extracellular domain with mouse Fc tag, Example 5) (human, UniProt Q07011 24-186); assay: bridging ELISA: PD-L1-His coated, bispecific, then 4-1BB-mouse Fc, anti-mouse HRP
T2 construct: also called 抗原人4-1BB; not shown: mouse Fc tag

[3] = target: T3, 人PD-L1全长, 表达于CHO-K1细胞 (CHO-K1/hPD-L1; CHO-K1/PDL1/TCR) (human, UniProt Q9NZQ7 19-290); assay: flow cytometry on CHO-K1/hPD-L1 cells, 4-parameter logistic fit
T3 construct: Full-length human PD-L1 transfected into CHO-K1 cells; also called 细胞表面人PD-L1抗原
T3 sequence (Q9NZQ7 19-290 limits assumed): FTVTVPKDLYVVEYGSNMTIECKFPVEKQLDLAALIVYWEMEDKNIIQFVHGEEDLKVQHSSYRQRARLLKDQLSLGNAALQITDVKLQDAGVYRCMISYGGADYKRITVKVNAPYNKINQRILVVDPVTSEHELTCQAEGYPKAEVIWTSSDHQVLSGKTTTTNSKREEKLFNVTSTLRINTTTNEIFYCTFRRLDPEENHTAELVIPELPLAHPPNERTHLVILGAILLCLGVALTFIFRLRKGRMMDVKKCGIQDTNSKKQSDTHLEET

[4] = target: T3, 人PD-L1全长, 表达于CHO-K1细胞 (CHO-K1/hPD-L1; …); assay: flow cytometry on CHO-K1/hPD-L1 cells, anti-human FITC
[5] = target: T4, 人4-1BB胞外段 (human 4-1BB extracellular domain, HEK293-expressed, Example 4) (human, UniProt Q07011 24-186); assay: ELISA, human 4-1BB ECD coated, anti-human IgG HRP
T4 construct: also called 人4-1BB抗原; CD137

[6] = target: T5, 猴4-1BB胞外段 (monkey 4-1BB extracellular domain) (monkey (猴), UniProt Q07011 24-186 (human entry)); assay: ELISA, monkey 4-1BB ECD coated, anti-human HRP
T5 construct: also called 猴4-1BB抗原
T5 chain: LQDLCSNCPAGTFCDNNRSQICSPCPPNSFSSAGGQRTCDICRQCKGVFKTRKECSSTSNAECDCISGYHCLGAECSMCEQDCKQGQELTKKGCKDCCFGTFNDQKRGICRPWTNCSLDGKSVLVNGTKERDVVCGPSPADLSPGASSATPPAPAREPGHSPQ

[7] = target: T6, 猴PD-L1胞外段 (monkey PD-L1 extracellular domain) (monkey (猴), UniProt Q9NZQ7 19-238 (human entry)); assay: ELISA, monkey PD-L1 ECD coated, anti-human HRP
T6 construct: also called 猴PD-L1抗原
T6 sequence (Q9NZQ7 other isoform, or with tags, fused parts or gaps): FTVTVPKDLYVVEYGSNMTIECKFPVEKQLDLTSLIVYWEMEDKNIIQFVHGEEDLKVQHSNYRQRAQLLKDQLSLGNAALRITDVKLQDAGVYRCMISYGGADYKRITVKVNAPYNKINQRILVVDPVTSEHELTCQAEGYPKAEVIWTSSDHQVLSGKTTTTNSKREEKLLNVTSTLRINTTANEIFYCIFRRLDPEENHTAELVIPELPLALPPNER

Row | Binder | binding result [1] | binding result [2] | EC50 [3] | FACS fluorescence signal at 0.308 nM (name of read-out not given) [4] | FACS fluorescence signal at 0.617 nM (name of read-out not given) [4] | FACS fluorescence signal at 1.851 nM (name of read-out not given) [4] | FACS fluorescence signal at 5.555 nM (name of read-out not given) [4] | FACS fluorescence signal at 16.666 nM (name of read-out not given) [4] | FACS fluorescence signal at 50 nM (name of read-out not given) [4] | binding result [5] | binding result [6] | binding result [7]
1 | B1 | binds | binds | 5.82 nM | 617 | 889 | 1450 | 4430 | 8220 | 8490 | binds | – | –
2 | B2 | binds | binds | 7.6 nM | 516 | 654 | 1190 | 2950 | 8400 | 8920 | binds | binds | binds
3 | B3 | – | – | 6.59 nM | 543 | 708 | 1390 | 3820 | 8710 | 8870 | – | – | –
